Source: the Immune Epitope Database (IEDB)

Experiments:
Assay in all cases: IEDB peptide-MHC binding, purified MHC/competitive/radioactivity; ≥ and ≤ were set here for values at or beyond the usual limits of such assays
Details in all cases: source organism: Bordetella pertussis
[1] = biological target: HLA-B*35:01
[2] = biological target: HLA-B*53:01
[3] = biological target: HLA-B*44:03
[4] = biological target: HLA-B*57:01
[5] = biological target: HLA-A*02:01
[6] = biological target: HLA-B*07:02

EATQQAAGF gave an IC50 [1] of 41.1 µM.
With LASDGSVDF the IC50 [2] was 23.1 µM.
For VAMKPYEVT, the IC50 [1] was 69.9 µM.
In the case of QITQHGGPY, the IC50 [1] is reported as 44 µM.
VAVAGGRWH was tested, and the IC50 [3] was at least 78.2 µM.
TSRTVTMRY was tested, and the IC50 [4] was 0.182 µM.
MIYMSGLAV was tested, and the IC50 [5] was 2.86 µM.
In the case of LVFSHVRGM, the IC50 [1] is reported as 19.8 µM.
In the case of ITNETGKTY, the IC50 [4] is reported as at least 70.4 µM.
Work on HADDGTIVI yielded an IC50 [2] of 69.9 µM.
QITQHGSPY showed an IC50 [1] of 34.5 µM.
In the case of HAQGKALLY, the IC50 [1] is reported as 0.385 µM.
With TVQELALKL the IC50 [3] was 12.5 µM.
PGPTTDYST was tested, and the IC50 [3] was at least 78.2 µM.
In the case of GYEAGFSLG, the IC50 [2] is reported as 26 µM.
Work on AALGRGHSL yielded an IC50 [6] of 19.6 µM and an IC50 [5] of 32.1 µM.
